# Earlier results, collected in paper PMC10743670.
# Like-named read-outs stand apart in the source and are kept apart here.
# How the values were obtained:
# Asp85 [1] = target: T1, Asp85 (UniProt position 98, WARYADWLFTT); details: ground (unphotolysed) state of bacteriorhodopsin; purple-to-blue transition
# Asp85 [2] = target: T1, Asp85; assay: other (described only as 'a titration of bacteriorhodopsin'); details: bacteriorhodopsin with the proton release group deprotonated
# Asp85 [3] = target: Asp85 (UniProt position 98, WAQYADWLFTT); details: ground state of the R82Q mutant
# Asp85 [4] = target: Asp85 (UniProt position 85, EIRYIDWLVTT); details: ground state
# Asp97 = Asp97 (UniProt position 97, VFRYIDWLLTV); details: ground state
substance,measurement,setting,value
Bacteriorhodopsin (bR) (Halobacterium salinarum (printed as Halobacterium halobium)),pKa,Asp85 [1],≈2.7
same,pKa,Asp85 [2],≈7.5
Bacteriorhodopsin R82Q mutant (Halobacterium salinarum (printed as Halobacterium halobium); R82Q),pKa,Asp85 [3],≈7.5
Exiguobacterium sibiricum rhodopsin (ESR) (Exiguobacterium sibiricum),pKa,Asp85 [4],<2
Exiguobacterium sibiricum rhodopsin (ESR) H57M mutant (Exiguobacterium sibiricum; H57M),pKa,Asp85 [4],6.3
Proteorhodopsin (PR) (uncultured marine gamma-proteobacterium (printed as 'marine γ-proteobacteria')),pKa,Asp97,∼7.0
